Reference: article PMC3046976

Biological target: polysialate O-acetyltransferase NeuO, protein variant with four N-terminal RLKTQDS heptads (Escherichia coli K1 (prophage CUS-3))
Assay: crystal structure; apo-enzyme, space group P2_1, three monomers in the asymmetric unit, 1.7 Å; sitting drop at 20°C, 0.1 M Tris pH 7.2, 0.45 M glycine, 0.2 M NH4NO3, 7% PEG4000

- stoichiometry N: 3
Substance: polysialate O-acetyltransferase NeuO, protein variant with four N-terminal RLKTQDS heptads (enzyme)
